Biological target: Recombinant Xenopus laevis histone octamer reconstituted into 70N5 mononucleosomes (Xenopus laevis)
Assay: native gel or EMSA; 70N5 601 nucleosomes with photo-reactive DNA bound with saturating INO80 at 30 C for 30 min; extent of binding on 4% native polyacrylamide gels

- percent of nucleosomes bound: > 90%
Substance: Native wild-type Saccharomyces cerevisiae INO80 complex (from UniProt P53115 1-1489; P53946 1-755; P32617 1-166; P40154 1-320; Q12386 1-881; P80428 1-489; P60010 1-375)

From PMC10635376, “New insights into the mechanism and DNA-sequence specificity of INO80 chromatin remodeling” (Research Square, 2023)
